Assay [1] deals with T1, PKCα catalytic domain (Homo sapiens, UniProt P17252).
T1 construct: All activity assays were performed with 50 nM isolated catalytic domain in PKC Buffer; fused substrate peptide with the fluorophore next to it (N, cleaved yes); second fluorophore of the mCerulean/mCitrine pair (next to the catalytic domain) (N); FLAG; made in house; host or cells: Sf9 insect cells (pBiex1), then on-resin TEV cleavage
Put plainly: Kinase activity assay (ATP consumption, Kinase-Glo Max). Type of assay: biochemical. The following applies: for Kinase activity toward the peptide substrate, in words: 500 μM peptide, isolated catalytic domain. How it is done:
All activity assays were performed with 50 nM isolated catalytic domain in PKC Buffer at 21-22° C. for 2-6 minutes. Experiments comparing the basal activity of different FRET sensors (FIG. 5A) were performed with 50 μM MBP peptide from GenScript. For all other activity experiments (FIGS. 3F, 4B, 5B, and 6B), the final peptide concentration was 500 μM. Activity was measured by monitoring ATP consumption with the Kinase-Glo Max Luminescence Assay Kit (Promega; Madison, Wis.). End-point luminescence was measured in white, 96-well plates using a M5e Spectramax spectrophotometer (Molecular Devices; San Jose, Calif.). For each experimental condition, ≥2 independent experiments were performed for ≥3 protein preparations (N≥6).
Kinase specific activity was inferred from the ATP consumed in phosphorylation reactions using the KINASE-GLO® Max Luminescence Assay Kit (Promega; Madison, Wis.). ATP depletion was monitored with the KINASE-GLO® Reagent, which uses luciferin, oxygen, and ATP as substrates in a reaction that produces oxyluciferin and light. The luminescent signal is linearly proportional to the amount of ATP remaining following the phosphorylation reaction.
Activity assays were performed using the catalytic domain (25-75 nM) and 500-μM peptide in PKC Buffer. Reactions were initiated by the addition of 250 μM ATP to a total reaction volume of 80 μL in U-bottom, white 96-well plates. Following a 3 minute incubation at 22° C., reactions were quenched and subsequent steps were performed as per instructions from the kit provider. End-point luminescence was measured in a FLEXSTATION® 3 plate reader (Molecular Devices). […] For each experimental condition, ≥2 independent measurements were performed for ≥3 protein preparations (N≥6).

The target in assay [2] is T1, PKCα catalytic domain. The experiment in a line: Time-resolved fluorescence decay (TCSPC) of peptide-catalytic domain FRET sensors. The assay is classed as binding. The following applies: means ± SEM, N = 3; for Mol Fraction Bound / Mol Fraction Unbound: eGFP/mCherry sensors, PKC Buffer containing 100 μM ATP; for Mol Fraction Bound: A2/(A1+A2); for τ2: second lifetime of bi-exponential fit, τ1 fixed to donor linker control (2.56 ± 0.01 ns). How it is done: FIG. 4A is a graph plotting a comparison between steady-state FRET and fractional binding for four alanine-containing peptide sensors. For fractional binding, fluorescence decay single photon counting data was fit to I(t)=A1e^−t/τ^1+A2e^−t/τ^2, where τ1 was set to the lifetime of a 10 nm ER/K linker control (see, TABLE 1). The mol fraction of the bound state(s) was calculated as A2/(A1+A2).
Time-resolved fluorescence decay measurements were taken by single photon counting (SPC-130-EM, Becker & Hickl) using a 485 nm sub-nanosecond pulse diode laser (PicoQuant), a 519 bandpass filter, and a PMH-100 photomultiplier module (Photonics Solutions) (Autry et al., J. Biol. Chem. 287:39070-39082, 2012). Sensors contained the eGFP and mCherry FRET pair, and all experiments were performed with 50-100 nM protein in PKC Buffer containing 100 μM ATP and 0.1 mg/mL BSA. Data were fit to the second exponential decay, I(t)=A1e^−t/τ^1+A2e^−t/τ^2, where τ1 was set to the lifetime of a 10 nm ER/K linker control. Each experimental condition was collected from three independent protein batches (N=3).
Time-correlated single photon counting (TCSPC) was used to test whether changes in steady-state FRET reflect changes in fractional binding of the peptide to the catalytic domain (FIG. 1). TCSPC is a method for measuring time-resolved fluorescence that provides information on complex decay kinetics and population states (Lakowicz, Principles of Fluorescence Spectroscopy, 3rd ed., Springer, New York, 2006). Using this method, the relative population of interacting to non-interacting species was measured for four peptide sensors displaying a range of steady-state FRET ratios (FIG. 2).

Assay [3] has as its target T1, PKCα catalytic domain. Put plainly: Steady-state FRET measurements of peptide sensors. The assay is classed as binding. The following applies: for Binding strength of the peptide to the catalytic domain (steady-state FRET ratio), in words: 10 nm ER/K linker sensors; for Peptide interaction with the catalytic domain on addition of nucleotide (ΔFRET): 100 μM compound, alanine-substituted peptide sensors. How it is done: All experiments were performed with 30-50 nM protein in PKC Buffer at 21-22° C. Samples were prepared in tubes pre-coated with 0.1 mg/mL BSA to limit protein sticking to tube walls. Protein samples were excited at 430 nm (mCer) with an 8-nm band pass, and emission monitored from 450 to 650 nm. The FRET ratio was calculated from the ratio of the emission for mCit (525 nm) to mCer (475 nm). Final concentrations of 100 μM ATP, 100 μM ADP, 100 μM Sangivamycin, or BimI were added as indicated. For each experimental condition, ≥3 independent protein batches were used and at least two replicates were measured for each independent experiment (N≥3).
Protein-protein interactions in live cells using SPASM FRET sensors have been extensively monitored as described elsewhere (Sivaramakrishnan and Spudich, supra; Swanson et al., supra; and Malik et al., J Biol. Chem. 288:17167-17178, 2013). FRET measurements provide a direct measure of the binding strength of the substrate peptides to the kinase catalytic domain (Sivaramakrishnan and Spudich, supra; and Sommese et al., J. Biol. Chem. 292:2873-2880, 2017). Before each experiment, purified sensors were centrifuged (17645 g, 4° C.) to remove any insoluble protein. All experiments were performed with 50 nM protein in PKC Buffer at 21-22° C. Samples were prepared in tubes pre-coated with BSA (0.1 mg/ml) to limit protein loss through adsorption to tube walls. FRET measurements were performed using FluoroMax-4 fluorometer (Horiba Scientific). Sensors were loaded in a quartz cuvette (1 cm path length) and excited at 430 nm with an 8-nm band pass, and emission was monitored (4-nm band pass) from 450 to 650 nm. The FRET ratio was calculated from the ratio of the emission for mCitrine (525 nm) to mCerulean (475 nm). For each experimental condition, ≥2 experimental replicates were measured for ≥3 independent protein batches (N≥6).

We go through 15 compounds from patent US20200181677A1, “SCREENING SYSTEM AND METHODS FOR IDENTIFYING ENZYME SUBSTRATES AND MODULATORS OF ENZYME ACTIVITY” (Regents of the University of Minnesota, priority 2017, published 2020).

“Also recorded” adds a separate entry of the source.

Consider “1: peptide substrate ADKRRSVRIGA, SEQ ID NO:4, from Kit/SCRF; Ala-substituted in FRET sensors [Peptide 1]”, for which the “Kinase activity toward the peptide substrate, in words” value with PKCα catalytic domain [1] is “high activity”.

Take “2: peptide substrate RVVGGSLRGAQ, SEQ ID NO:6, from PTP1B [Peptide 2]”: in the assay with PKCα catalytic domain [1] (listed as p2), the “Kinase activity toward the peptide substrate, in words” value is on record as “high kinase activity”.

Take “3: peptide substrate LAGGFSFKKNK, SEQ ID NO:8, from MARCKS (KLAGFSFKKNK) [Peptide 3]”: in the assay with PKCα catalytic domain [1], the “Kinase activity toward the peptide substrate, in words” value is recorded as “high activity”.

In the case of “6: peptide substrate ASQKRPSQRH, SEQ ID NO:14, from Myelin Basic Protein; Ala-substituted in FRET sensors [Peptide 6]”, in the assay with PKCα catalytic domain [2], the “Mol Fraction Bound” value came out at 0.08 ± 0.01, the “Mol Fraction Unbound” value turned out to be 0.92 ± 0.01 and the τ2 amounted to 0.49 ± 0.05 ns.

Turning to “8: peptide substrate IVRKATLRRLL, SEQ ID NO:18, from EGF Receptor; Ala-substituted sensor form SEQ ID NO:17 [Peptide 8]”, in the assay with PKCα catalytic domain [2], the “Mol Fraction Bound” value worked out at 0.11 ± 0.01, the “Mol Fraction Unbound” value turned out to be 0.89 ± 0.01 and the τ2 stood at 0.66 ± 0.06 ns. Further, in the assay with PKCα catalytic domain [3], the “Binding strength of the peptide to the catalytic domain (steady-state FRET ratio), in words” value is reported as “medium binding”.

Turning to “9: peptide substrate ARKRERTYSFGHHA, SEQ ID NO:20, Optimized AKT Sub. [Peptide 9]”, the “Binding strength of the peptide to the catalytic domain (steady-state FRET ratio), in words” value in the assay with PKCα catalytic domain [3] was “medium binding”.

In the case of “10: peptide substrate RRRRSIIFI, SEQ ID NO:22, Optimized PKA Sub.; Ala-substituted in FRET sensors [Peptide 10]”, in the assay with PKCα catalytic domain [2], the “Mol Fraction Bound” value is listed as 0.16 ± 0.01, the “Mol Fraction Unbound” value came out at 0.84 ± 0.01 and the τ2 was found to be 0.83 ± 0.06 ns. Further, the “Kinase activity toward the peptide substrate, in words” value in the assay with PKCα catalytic domain [1] was “poor activity”.

As for “11: peptide substrate FKLKRKGTFKKFA, SEQ ID NO:35, Optimized PKCβ Sub.; Ala-substituted sensor form SEQ ID NO:23 [Peptide 11]”, in the assay with PKCα catalytic domain [2], the “Mol Fraction Bound” value came out at 0.15 ± 0.01, the “Mol Fraction Unbound” value was determined as 0.85 ± 0.01 and the τ2 stood at 0.88 ± 0.06 ns. The “Kinase activity toward the peptide substrate, in words” value in the assay with PKCα catalytic domain [1] is recorded as “poor activity”. Further, the “Activity of the peptide FRET sensor for the same substrate” value with PKCα catalytic domain [1] (10 nm linker sensors, 50 μM MBP peptide) is reported as “much lower activity”.

Consider “12: peptide substrate RRFKRQGSFFYFF, SEQ ID NO:26, Optimized PKCζ Sub. [Peptide 12]”, for which the “Kinase activity toward the peptide substrate, in words” value with PKCα catalytic domain [1] (listed as p12) is listed as “lowest kinase activity; also recorded: poor activity”. The “Effect on catalytic turnover with low affinity-high activity peptide #6” value with PKCα catalytic domain [1] (equimolar peptides #6 and #12) was “essentially inhibited”.

On to `Nc1ncnc2c1ncn2[C@@H]1O[C@H](COP(=O)(O)OP(=O)(O)O)[C@@H](O)[C@H]1O` [ADP, reference compound], for which the “Peptide interaction with the catalytic domain on addition of nucleotide (ΔFRET)” value (“Peptide interaction … (ΔFRET)” for short) at PKCα catalytic domain [3] is “also occurred”.

With `Nc1ncnc2c1ncn2[C@@H]1O[C@H](COP(=O)(O)OP(=O)(O)OP(=O)(O)O)[C@@H](O)[C@H]1O` [ATP, reference compound], at PKCα catalytic domain [3], the “Peptide interaction … (ΔFRET)” value is listed as “significant increase”.

With `CN(C)CCCn1cc(C2=C(c3c[nH]c4ccccc34)C(=O)NC2=O)c2ccccc21` [BimI, Bisindolylmaleimide I, reference compound], on PKCα catalytic domain [3] (peptide #8 and #11 sensors, 100 μM ATP, BimI titration), the “Effect on the ATP-dependent substrate-kinase interaction (steady-state FRET)” value was “abrogated”.

For `NC(=O)c1cn([C@@H]2O[C@H](CO)[C@@H](O)[C@H]2O)c2ncnc(N)c12` [Sangivamycin, reference compound], the “Peptide interaction … (ΔFRET)” value at PKCα catalytic domain [3] is listed as “also occurred”.

As to NRFARKGALRQKNV [Peptide 14], in the assay with PKCα catalytic domain [3], the “Binding strength of the peptide to the catalytic domain (steady-state FRET ratio), in words” value is listed as “bound more strongly”. Besides, the “Inhibition of ATP turnover of the catalytic domain for serine-containing peptide #14” value with PKCα catalytic domain [1] (equimolar competing peptide) is “significantly better at inhibiting catalytic activity”.

For the compound NRFARKGDLRQKNV [Peptide S14D], the “Binding strength of the peptide to the catalytic domain (steady-state FRET ratio), in words” value in the assay with PKCα catalytic domain [3] is given as “decreased affinity”.
